Assay results from article PMC4512291 (Angewandte Chemie (International Ed. in English), 2015).

Biological target: HPV16 E6 (GPCA fusion) (HPV16, UniProt P03126 1-158)
Assay: split reporter

B1: PDZ-LxxLL chimera fused to a Gaussia princeps luciferase fragment (GPCA) (designed binder)
chain: GKPFFTRNPSELKGKFIHTKLRKSSRGFGFTVVGGDEPDEFLQIKSLVLDGPAALDGKMETGDVIVSVNDTCVLGHTHAQVVKIFQSIPIGASVDLELCRGYPLPFDPDDPNTSLVTSVAILDKEPAAAELTLQELLGEER
- fold increase of the GPCA binding signal over that with LxxLL: 75 fold
- fold increase of the GPCA binding signal over that with PDZ: 25 fold
